One data set relates to NC(=O)NC(=O)O. The experiment in a line: purified protein. It is filed as biochemical, Granulibacter bethesdensis. The following applies: 50 mM HEPES pH 7.4, 50 mM NaCl, 1 mM EGTA, 25 °C.
Substrate in the data set “purified protein”: NC(=O)NC(=O)O
As to the kind of experiment: purified protein. Format: biochemical, Granulibacter bethesdensis. Conditions: 50 mM HEPES pH 7.4, 50 mM NaCl, 1 mM EGTA, 25 °C. This is another data set of the same source.

For orientation: Km means the concentration of substrate that gives half-maximal velocity. One may read the kcat as the maximal rate divided by the concentration of active sites. The kcat/Km is the second-order rate constant that governs catalysis at low substrate concentration. “GbAH (Granulibacter bethesdensis allophanate hydrolase), wt (Granulibacter bethesdensis CGDNIH1; Y299A)”: in the data set with NC(=O)NC(=O)O, the Km is 3000 ± 400 µM, the kcat amounted to 0.071 ± 0.002 s⁻¹ and the catalytic efficiency (kcat/Km) turned out to be 24 ± 3 M⁻¹ s⁻¹.
Regarding “GbAH (Granulibacter bethesdensis allophanate hydrolase), wt (Granulibacter bethesdensis CGDNIH1; Y299F)”, in the data set with NC(=O)NC(=O)O, the Km is 1200 ± 100 µM, the kcat stood at 0.042 ± 0.001 s⁻¹ and the kcat/Km was found to be 35 ± 3 M⁻¹ s⁻¹.

B1: GbAH (Granulibacter bethesdensis allophanate hydrolase), wt (Granulibacter bethesdensis CGDNIH1) (protein)
chain: MTLSMTLEGIQAFLAQGGTIEQVVTEAYDRITRYGDKAVWIALRPREEVLAEARALDASPATGKPLYGVPFAVKDNIDVAGLPCSAACPAFTYEPDRDATVVARLRAAGAIVLGKTNLDQFATGLVGTRSPFGAPRCVFDQDYISGGSSSGSAVAVAAGLVAFSLGTDTAGSGRVPAAFNNLVGVKPTKGLLSTSGVVPACRSLDCVTVFAASVAEGTLIRRIAEGYDAADPYSRPSQKRRLPHVGLRVGVPRQDQREFYGNTAYAALYQRALDEMISLDAELVEIDFAPFRDAAKLLYGGPWVAERLEAVGDHLSRAPDSFDPVVRSIVETAKTLSAVDAFRGQYELAALTQQANAQWARMDILLLPTAPTIHKVEAVMADPVRLNSQLGHYTNFVNLLDCAAIAVPAGFIETGLPFGVTLVGPAFSDDSMALIADRLHRRLEPGYGQDRASLPDPVLEETNPEQIALAVVGAHLSGQPLHWQLTERNATLVARTRTAPEYRLYALAETIPPKPGLVADPDFTGDGIEIELWSMDAEAFGTFTALVPAPLAIGTLRLADGTSVKGFVCEPAGLVGAQDITRFGGWRAYLAQ
With B1, in the data set “purified protein”, the Km was 100 ± 2 µM, the kcat is 18 ± 1 s⁻¹ and the kcat/Km was determined as 180000 ± 3000 M⁻¹ s⁻¹.

The values are drawn from paper PMC3568674.
